The source of these data is patent US7122374.

What all share (experiment): ELISA, peptide coated at 1 µg/mL, mAb4G8 diluted 1000 times, HRP anti-mouse Igs
Assay [1] concerns the target AβN3E-42.
Assay [2] addresses AβN3pE-42.
For assay [3], the target named is Aβ1-40.
Chain of Aβ1-40 (peptide, as listed by the source): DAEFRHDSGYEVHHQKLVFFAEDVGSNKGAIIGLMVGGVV

Chain of AβN3pE-42 (peptide, as listed by the source): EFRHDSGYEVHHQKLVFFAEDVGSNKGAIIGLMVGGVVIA

Consider “monoclonal antibody mAb4G8 (SENETEC Inc)”, for which the results for the absorbance at 450 nm in assay [1], in assay [2] and in assay [3] were 1.39 A450, 2.27 A450 and 1.57 A450, respectively.
